Assay results taken from US20210293825.

Molecular target: HSP90β/CDC37 heterocomplex of purified recombinant HSP90β and CDC37 (in vitro kinase assay), P08238
Sequence (P08238 whole entry, chain 1 of 2): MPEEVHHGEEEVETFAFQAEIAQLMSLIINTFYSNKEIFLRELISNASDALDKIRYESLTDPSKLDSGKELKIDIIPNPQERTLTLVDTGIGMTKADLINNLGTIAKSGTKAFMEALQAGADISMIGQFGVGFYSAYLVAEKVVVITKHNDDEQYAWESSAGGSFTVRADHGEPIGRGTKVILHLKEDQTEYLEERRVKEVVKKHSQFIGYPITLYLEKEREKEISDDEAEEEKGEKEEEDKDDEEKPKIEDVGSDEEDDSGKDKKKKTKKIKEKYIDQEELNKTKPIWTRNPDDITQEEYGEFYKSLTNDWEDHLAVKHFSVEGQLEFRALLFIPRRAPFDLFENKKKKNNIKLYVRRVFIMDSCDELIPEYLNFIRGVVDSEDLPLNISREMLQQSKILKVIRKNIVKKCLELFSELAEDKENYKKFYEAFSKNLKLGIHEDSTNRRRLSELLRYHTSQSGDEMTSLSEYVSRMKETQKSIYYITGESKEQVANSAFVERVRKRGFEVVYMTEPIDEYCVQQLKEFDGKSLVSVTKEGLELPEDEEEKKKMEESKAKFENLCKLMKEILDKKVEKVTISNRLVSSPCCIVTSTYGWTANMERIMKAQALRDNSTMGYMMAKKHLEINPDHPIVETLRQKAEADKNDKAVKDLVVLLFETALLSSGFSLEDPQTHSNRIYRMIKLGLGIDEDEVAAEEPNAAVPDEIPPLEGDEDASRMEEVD
Sequence (chain, as listed by the source, chain 2 of 2): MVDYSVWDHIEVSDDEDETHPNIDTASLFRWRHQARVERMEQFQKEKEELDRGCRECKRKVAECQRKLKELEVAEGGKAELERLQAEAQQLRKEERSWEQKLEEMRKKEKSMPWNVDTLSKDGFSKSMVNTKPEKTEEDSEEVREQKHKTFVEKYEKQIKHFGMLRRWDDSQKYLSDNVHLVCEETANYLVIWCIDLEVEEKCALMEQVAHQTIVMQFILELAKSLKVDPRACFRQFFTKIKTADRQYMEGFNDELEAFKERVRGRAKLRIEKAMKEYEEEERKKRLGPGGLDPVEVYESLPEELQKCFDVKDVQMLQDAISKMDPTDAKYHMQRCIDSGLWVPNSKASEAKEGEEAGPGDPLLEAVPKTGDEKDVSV

B1: purified recombinant RAF1 (Raf-1, EMD Millipore #17-360) (protein)
chain: SQPKTPVPAQRERAPVSGTQEKNKIRPRGQRDSSYYWEIEASEVMLSTRIGSGSFGTVYKGKWHGDVAVKILKVVDPTPEQFQAFRNEVAVLRKTRHVNILLFMGYMTKDNLAIVTQWCEGSSLYKHLHVQETKFQMFQLIDIARQTAQGMDYLHAKNIIHRDMKSNNIFLHEGLTVKIGDFGLATVKSRWSGSQQVEQPTGSVLWMAPEVIRMQDNNPFSFQSDVYSYGIVLYELMTGELPYSHINNRDQIIFMVGRGYASPDLSKLYKNCPKAMKRLVADCVKKVKEERPLFPQILSSIELLQHSLPKINRSASEPSLHRAAHTEDINACTLTTSPRLPVF
  RAF1 activity (autophosphorylation of RAF1 in an in vitro kinase assay, Western blot): In the absence of CDC37/HSP90β heterocomplex, RAF1 activity was much lower

B2: purified recombinant SGK3 (Thermo Scientific #PV3859) (protein)
chain: MQRDHTMDYKESCPSVSIPSSDEHREKKKRFTVYKVLVSVGRSEWFVFRRYAEFDKLYNTLKKQFPAMALKIPAKRIFGDNFDPDFIKQRRAGLNEFIQNLVRYPELYNHPDVRAFLQMDSPKHQSDPSEDEDERSSQKLHSTSQNINLGPSGNPHAKPTDFDFLKVIGKGSFGKVLLAKRKLDGKFYAVKVLQKKIVLNRKEQKHIMAERNVLLKNVKHPFLVGLHYSFQTTEKLYFVLDFVNGGELFFHLQRERSFPEHRARFYAAEIASALGYLHSIKIVYRDLKPENILLDSVGHVVLTDFGLCKEGIAISDTTTTFCGTPEYLAPEVIRKQPYDNTVDWWCLGAVLYEMLYGLPPFYCRDVAEMYDNILHKPLSLRPGVSLTAWSILEELLEKDRQNRLGAKEDFLEIQNHPFFESLSWADLVQKKIPPPFNPNVAGPDDIRNFDTAFTEETVPYSVCVSSDYSIVNASVLEADDAFVGFSYAPPSEDLFL
  phosphorylation of HSP90β (in vitro kinase assay, Western blot): SGK3 increased phosphorylation of HSP90β, and that phosphorylation was further increased in the presence of KBU2046
